This is an account of results in paper PMC9171410 (EMBO Reports, 2022).

One assay deals with T1, Gid10^57–292 (S. cerevisiae, UniProt P53242 57-292).
T1 sequence: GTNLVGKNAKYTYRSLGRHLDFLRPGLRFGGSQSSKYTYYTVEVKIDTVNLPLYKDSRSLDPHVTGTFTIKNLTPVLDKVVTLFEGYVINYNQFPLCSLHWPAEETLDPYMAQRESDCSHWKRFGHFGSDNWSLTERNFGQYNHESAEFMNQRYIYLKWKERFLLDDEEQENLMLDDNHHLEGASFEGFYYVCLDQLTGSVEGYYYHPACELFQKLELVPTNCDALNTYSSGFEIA
The assay is described as follows: ITC.

The target in the next assay is T2, Gid10^65–284 (S. cerevisiae, UniProt P53242 65-284).
T2 sequence: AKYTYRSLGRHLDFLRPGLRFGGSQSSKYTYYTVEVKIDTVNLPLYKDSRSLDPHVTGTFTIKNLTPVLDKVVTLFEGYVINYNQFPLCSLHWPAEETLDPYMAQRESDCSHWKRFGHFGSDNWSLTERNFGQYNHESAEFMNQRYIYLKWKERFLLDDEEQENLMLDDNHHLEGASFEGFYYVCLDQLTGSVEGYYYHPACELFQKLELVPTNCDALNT
The assay is described as follows: crystal structure.

PFITSRPVAW [Art2 degron peptide PFITSRPVAW] displayed a Kd with Gid10^57–292 of 1030 nM.

On to PFITSRPW [Art2 degron peptide PFITSRPW], for which the binding result with Gid10^65–284 was “binds”.
